Test results as given in the RNAGym collection of RNA variant scans (doi:10.1101/gr.219683.116).

B1: mRNA-splicing (parent)
chain: AGUUGCUGCUGGGAGCUCCAGCACAGUGAAAUGGACAGAAGGGCAGAGCAA

Variants of: B1
Experiment: exon inclusion enrichment index; higher = more inclusion; WT1 exon 5 minigene, HEK293

| Variant | exon inclusion enrichment index |
| --- | --- |
| AGUUAGGGAUGGGACUUCCAGCACAGUGAAAUGGACAGAAGGGCAGAGCAA [G5A C6G U7G C9A G15C C16U] | 0.000839 |
| AGUUAUAUAUGGGAAGUCCAGCACAGUGAAAUGGACAGAAGGGCAGAGCAA [G5A C6U U7A G8U C9A G15A C16G] | 0.0191 |
| AGUUACCACCGGGAGCUCCAGCACAUAGAAAUGGACAGAAGGGCAGAGCAA [G5A U7C G8A U10C G26U U27A] | 1.08 |
| AGUUGCUGCUGGGAGCUCCAGCACAGUGAAAUGGACAGAAGGGCGAAGCAA [A45G G46A] | 0.84 |
| AGUUUCUUUUGGGAGGCCCAGCACAGUGAAAUGGACAGAAGGGCAGAGCAA [G5U G8U C9U C16G U17C] | 0.0319 |
| AGUUGCUGCUGGGAGGGCCAGCACAGUGAAAUGGACAGAAGGGCAGAGCAA [C16G U17G] | 0.0697 |
| AGUUCUUCUCGGGAGCUCCAGCACAGUGAGUUGGACAGAAGGGCAGAGCAA [G5C C6U G8C C9U U10C A30G A31U] | 0.63 |
| AGUUGACUCCGGGAGCUCCAGCACAGUGAAAUGGACAGAAGGGCAGAGCAA [C6A U7C G8U U10C] | 2.98 |
| AGUUCACACAGGGAGCUCCAGAACAGUGAAAUGGACAGAAGGGCAGAGCAA [G5C C6A U7C G8A U10A C22A] | 0.0834 |
| AGUUUCAUAUGGGAGCUCCAGCACAGUGAAAUGGACAGAAGGGCAGAGCAA [G5U U7A G8U C9A] | 0.367 |
| AGUCGACGACGGGAGCUCCAGCACAGUGAAAUGGACAGAAGGGCAGAGCAA [U4C C6A U7C C9A U10C] | 4.65 |
| ACGUAUAUAUGGGAGCUCCAGCACAGUGAAAUGGACAGAAGGGCAGAGCAA [G2C U3G G5A C6U U7A G8U C9A] | 0.0859 |
| AGUUACCACCGGGAGCUCCAGCACAGUGAAAUGGACAGAAGGGCAAGGCAA [G5A U7C G8A U10C G46A A47G] | 0.953 |
| AGUUGCUGCUGGGAGCUCCAGCAUUGUGAAAUGGACAGAAGGGCAGAGCAA [C24U A25U] | 0.208 |
| AGUUUCUUUUGGGAGCUCCAGCUCAGUGAAAUGGACAGAAGGGCAGAGCAA [G5U G8U C9U A23U] | 0.0459 |
| AGUUGACGACGGGAGCUCCAGCACAGUGAAAUGGACAGAAGGGCAGUUCAA [C6A U7C C9A U10C A47U G48U] | 2.6 |
| AGUUUCUUUUGGAAGCUCCAGCACAGUGAAAUGGACAGAAGGGCAGAGCAA [G5U G8U C9U G13A] | 0.0771 |
| AGGGCUUCUCGGGAGCUCCAGCACAGUGAAAUGGACAGAAGGGCAGAGCAA [U3G U4G G5C C6U G8C C9U U10C] | 0.152 |
| AGUUACCACCGGGAGCUCCAGCACAGUUGAAUGGACAGAAGGGCAGAGCAA [G5A U7C G8A U10C G28U A29G] | 2.07 |
| AGUUUCUUUUGGGAGCUCCAGCACGCUGAAAUGGACAGAAGGGCAGAGCAA [G5U G8U C9U A25G G26C] | 0.74 |
| AGUUAGGGAUGGGAGCAGCAGCACAGUGAAAUGGACAGAAGGGCAGAGCAA [G5A C6G U7G C9A U17A C18G] | 0.00136 |
| AGUUGCUGCUGGUGGCUCCAGCACAGUGAAAUGGACAGAAGGGCAGAGCAA [G13U A14G] | 0.0891 |
| AGUUACCACCGGGAGCUCCUUCACAGUGAAAUGGACAGAAGGGCAGAGCAA [G5A U7C G8A U10C A20U G21U] | 1.69 |
| AGUUUCUUGAGGGAGCUCCAGCACAGUGAAAUGGACAGAAGGGCAGAGCAA [G5U G8U C9G U10A] | 0.128 |
| AGCGACCACCGGGAGCUCCAGCACAGUGAAAUGGACAGAAGGGCAGAGCAA [U3C U4G G5A U7C G8A U10C] | 2.97 |
| AGUUAGGGAUGGGAGCUCCAGCACAGAUAAAUGGACAGAAGGGCAGAGCAA [G5A C6G U7G C9A U27A G28U] | 0.00161 |

| Variant | exon inclusion enrichment index |
| --- | --- |
| AGUUGACGACGGGAGCUCCUCCACAGUGAAAUGGACAGAAGGGCAGAGCAA [C6A U7C C9A U10C A20U G21C] | 3.73 |
| AGUUACCUUCGGGAGCUCCAGCACAGUGAAAUGGACAGAAGGGCAGAGCAA [G5A U7C G8U C9U U10C] | 1.17 |
| AGUUCUUCUCGGGAGCUCCAGCACCCUGAAAUGGACAGAAGGGCAGAGCAA [G5C C6U G8C C9U U10C A25C G26C] | 2.25 |
| AGUUGCUGCUGGGAGCUCCAGACCAGUGAAAUGGACAGAAGGGCAGAGCAA [C22A A23C] | 2.97 |
| AGUUCACACAAAGAGCUCCAGCACAGUGAAAUGGACAGAAGGGCAGAGCAA [G5C C6A U7C G8A U10A G11A G12A] | 0.202 |
| AGUUAUAUAUGGGAGCUCCAGCUUAGUGAAAUGGACAGAAGGGCAGAGCAA [G5A C6U U7A G8U C9A A23U C24U] | 0.000794 |
| AGUUGCUGCUGGGAGCUCCAGCACUAUGAAAUGGACAGAAGGGCAGAGCAA [A25U G26A] | 0.136 |
| AGUUAGGGAUGGGAGCUCCAGCACAGUGAAAUGGACAGAAGGGAGGAGCAA [G5A C6G U7G C9A C44A A45G] | 0.0102 |
| AGUUCGCGCCGGGAGCUCCAGCACAGUCUAAUGGACAGAAGGGCAGAGCAA [G5C C6G U7C U10C G28C A29U] | 2.35 |
| AGUUGAAGAAGGGAGCUCCAGCCGAGUGAAAUGGACAGAAGGGCAGAGCAA [C6A U7A C9A U10A A23C C24G] | 1.83 |
| AGCUGCUGCUGGGAGCUCCAGCACAGUGAAAUGGACAGAAGGGCAGAGCAA [U3C] | 0.011 |
| AGUUCGCGCCGGGAGCUCCAGCACAGUGAAAUGGACAGAAGGGACGAGCAA [G5C C6G U7C U10C C44A A45C] | 4.3 |
| AGUUGACGACGGGAGCUCCAGCACAGUGAAAUGGACAGAAGGCAAGAGCAA [C6A U7C C9A U10C G43C C44A] | 3.8 |
| AGUUAGGGAUGGGAGCUCCAGCACAGUGAAAUGGACACUAGGGCAGAGCAA [G5A C6G U7G C9A G38C A39U] | 0.000965 |
| AGUUGACGACGGGAGCUCCAGCACAGUGAAAUGGACAGAAGGGUGGAGCAA [C6A U7C C9A U10C C44U A45G] | 2.34 |
| AGUUGAAAGAGGGAGCUCCAGCACAGUGAAAUGGACAGAAGGGCAGAGCAA [C6A U7A G8A C9G U10A] | 0.2 |
| AGUUAGGGAUGGGAGCUCCAGCACAGCGAAAUGGACAGAAGGGCAGAGCAA [G5A C6G U7G C9A U27C] | 0.00674 |
| AGUUCACACAGGGAGCUCCAUAACAGUGAAAUGGACAGAAGGGCAGAGCAA [G5C C6A U7C G8A U10A G21U C22A] | 0.0315 |
| AGUUGACGACGGCAGCUCCAGCACAGUGAAAUGGACAGAAGGGCAGAGCAA [C6A U7C C9A U10C G13C] | 2.83 |
| AGUUCGCGCCGGGAGCUCCAGCACAGUGAAAUGUGCAGAAGGGCAGAGCAA [G5C C6G U7C U10C G34U A35G] | 1.24 |
| AGUUGAAGAAGGGAGCUCCAGCACAGUGAAAUGGACAGAAGGGCAGGACAA [C6A U7A C9A U10A A47G G48A] | 0.364 |
| AGUUGACGACGGGACAUCCAGCACAGUGAAAUGGACAGAAGGGCAGAGCAA [C6A U7C C9A U10C G15C C16A] | 2.79 |
| AGUUAGGGAUGGGAGCUCCAGCGAAGUGAAAUGGACAGAAGGGCAGAGCAA [G5A C6G U7G C9A A23G C24A] | 0.00158 |
| AGUUGAAGAAGGGAGCUCCAGCACAGUGAACAGGACAGAAGGGCAGAGCAA [C6A U7A C9A U10A A31C U32A] | 0.428 |
| AGUUCGCGCCGGGAGCUUCAGCACAGUGAAAUGGACAGAAGGGCAGAGCAA [G5C C6G U7C U10C C18U] | 3.14 |
